Assays:
Conditions in all cases: both partners purified
[1] = biological target: T1, protocadherin-15 EC1+2, wild type, His-tagged (mouse, UniProt Q99PJ1 27-259); test: SEC; analytical, Superdex 75 3.2/3.0, SEC buffer, 4°C, 100 μL loop, 0.05 mL/min; complex read from a decrease in elution volume of the mixture
T1 construct: Protocadherin-15 (PCDH15), mouse, N-terminal fragment EC1+2; pET21a, NdeI/XhoI; predicted molecular weight 27.5 kDa; Held on the Ni-NTA chip by its His tag in SPR; also called pcdh15; pcdh15(WT); not shown: His6, C-terminal, kept

[2] = biological target: T1, protocadherin-15 EC1+2, wild type, …; test: SPR; Biacore T100, Ni-NTA chip, 6xHis pcdh15 immobilised, tag-free cdh23 0.25 to 30 μM injected, 25°C, SEC buffer; global kinetic fit with EVILFIT (distribution model)
[3] = biological target: T2, protocadherin-15 EC1+2 G16D, His-tagged (mouse, UniProt Q99PJ1 27-259, G16D); test: as above
T2 construct: Protocadherin-15 (PCDH15), mouse, N-terminal fragment EC1+2; Mutant of m12 made with QuikChange; Held on the Ni-NTA chip by its His tag in SPR; also called pcdh15(G16D); not shown: His6, C-terminal, kept

[4] = biological target: T3, protocadherin-15 EC1+2 Q165L, His-tagged (mouse, UniProt Q99PJ1 27-259, Q165L); test: as above
T3 construct: Protocadherin-15 (PCDH15), mouse, N-terminal fragment EC1+2; Mutant of m12 made with QuikChange; Held on the Ni-NTA chip by its His tag in SPR; also called pcdh15(Q165L); not shown: His6, C-terminal, kept

[5] = biological target: T1, protocadherin-15 EC1+2, wild type, …; test: SPR; Biacore T100, Ni-NTA chip, 6xHis pcdh15 immobilised, tag-free cdh23 0.25 to 30 μM injected, 25°C, SEC buffer; KD from binding isotherms (Biacore T100 evaluation software)
[6] = biological target: T2, protocadherin-15 EC1+2 G16D, His-tagged; test: as above
[7] = biological target: T3, protocadherin-15 EC1+2 Q165L, His-tagged; test: as above

Binder | binding result [1] | Kd [2] | koff [2] | kon [2] | Kd [3] | koff [3] | kon [3] | Kd [4] | koff [4] | kon [4] | Kd [5] | Kd [6] | Kd [7]
cadherin-23 EC1+2 T190W, His-tagged (domain or fragment, mouse, Cadherin-23 (CDH23), mouse, N-terminal fragment EC1+2; Mutant of m1 made with QuikChange; also called cdh23(T190W)) QVNRLPFFTNHFFDTYLLISEDTPVGSSVTQLLARDMDNDPLVFGVSGEEASRFFAVEPDTGVVWLRQPLDRETKSEFTVEFSVSDHQGVITRKVNIQVGDVNDNAPTFHNQPYSVRIPENTPVGTPIFIVNATDPDLGAGGSVLYSFQPPSPFFAIDSARGIVTVIQELDYEVTQAYQLTVNATDQDKWRPLSTLANLAIIITD | binds |  |  |  |  |  |  |  |  |  |  |  | 
cadherin-23 EC1+2 (residues 1-205), wild type, tagless (domain or fragment, mouse, an Ala residue included between CDH23 EC2 and the intein tag to improve cleavage efficiency; pTXB1, NdeI/SapI; That the added Ala stays on the C-terminus after thiol-induced cleavage, and that a start Met precedes residue 1, are surmised; also called tag-free cdh23; tagless cdh23) QVNRLPFFTNHFFDTYLLISEDTPVGSSVTQLLARDMDNDPLVFGVSGEEASRFFAVEPDTGVVWLRQPLDRETKSEFTVEFSVSDHQGVITRKVNIQVGDVNDNAPTFHNQPYSVRIPENTPVGTPIFIVNATDPDLGAGGSVLYSFQPPSPFFAIDSARGIVTVIQELDYEVTQAYQLTVNATDQDKTRPLSTLANLAIIITDA |  | 3720 ± 1650 nM | 0.2 ± 0.04 s⁻¹ | 61900 M⁻¹ s⁻¹ | 2000 ± 990 nM | 0.17 ± 0.01 s⁻¹ | 94800 M⁻¹ s⁻¹ | 3940 ± 1110 nM | 0.22 ± 0.04 s⁻¹ | 55900 M⁻¹ s⁻¹ | 1380 ± 360 nM | 1110 ± 70 nM | 2600 nM
